Our source for the protein production values is a protein production outcome set (Wang et al. 2014).

This data set is described as follows: label from the status in PepcDB records.
For “MFKIQEVRELIKLIDSSNIDEFEYKKDGTTIKMKKRGNEVVAVQAPVAKQAVQPVAPVEVETTVAAAQVEVPKQEEKKAVQNENLHKITSPMVGTFYSSSSSSPDTPPYVSVGDRVSKDSIVCIVEAMKLFNEIDADVDGEIVEILVNNGQLVEYGQPLFLVKA”, the protein production result was “failed”.

As to “MFKRIAQTAGFTGLLAALLLTLLQSFWVVPLIQQAETYEKAPAEHVHEHADGAVAEHSHAHDEAAWEPENGWQRVLSTTGGNLVVAVGFALMLAGLYTLRAPGRTAQGAWWGLAGFAVFVLAPTLGLPPELPGTAAAELSQRQLWWIGTAASTAAGLALLVFGQNWLLKVLGAAILVVPHVIGAPQPLVHESLAPEALESQFRVASLLTNALFWVALGLISAWLFRRSNVHTDNAHSNHA”, the protein production entry is recorded as “failed”.

“MFKRIGLISIALSLNTISFTSEACSALVFNKNKPATVAVNLDWKYREGAFVIHPRNAMMVSSVDYHSMHPLIWKSQYGSVIFHGGNRFKAGPSADGMNEKGLTASILMLDSSIYPSNSELPALKTTEWVQYILDNFQTVQEVIDDSSNYQLVADTYRGITMNVHLMVSDAEGKSAVFEYLDGKLVIHTQDNLTTPVLTNTDYKLSLALLEEYQDHGGSKALPGGYDSKSRFVRAAHYLKKLPSFIAKEEHIAYAFNGLNVVTQAPGTSSPTQLSMVFDIPTKTIYFRSINEAALRVIPMDSIDFDYLYQPIALNVYQHLSGDVTDKFQPMIG”: the protein production entry is “failed”.

As to “MFKRLKDSALLFWSLEILIVATLIWVCTNIGFLFQPIGTFLSVVFMPILISGFLFYMLNPLVKLLTKVHYKKFRISRTGAVAIVFVLLFGLLVWGAVSLLPRLVSQVTQLIYNLPSIATEMQKAATKLINNSSVLKRIDISSYTKQFNGEISKYSQNFLSSLSSSVVTVISTITSVTIMAITIPVVLFYMLKDSEKFIPAISRFLPKKQRPEVIGLLQKMGDTISSYISGQVIECLFVGTFTAIGYMLISQPYGLLLGVIAGLTNIIPYVGPYIGIAPSLIVAFTKSPMQVVYVIIVVVIVQQVDGNLIYPNIIGRTLKIHPLTIIILLLAAGNIAGILGMILAIPFYAVVRTVVIYLYNIVELRNEEHLRKQTTVYQPQPAKATKADLTTTTKSKK”, the protein production entry is listed as “failed”.

Consider “MFKTVIIMLMAVSAGTIGDILLAKGMKELGDLSAMNLRGILNVAGQALTSPKLIFGTAMLAIFFFLWLAVLSWEDLSVALPMQALNYVLVAFLSQWFLGETVSPLRWTGTIMVCVGVMLITKSGTP”, for which the protein production entry is “failed”.

Consider “MFLDYFALGLLIFVALVIFYGIIVIHDIPYEIAKEREHPHQDAIHYAGWVSLFTLHALWPFLWIWATLWRKERGWGFQKLEAEQHDIHHRVDVLIDEVKQLRTELETLKTSSLSVPKSTPAASTSEEKQ”, for which the protein production result is “failed”.

As for “MFLRGNPDKTEPAFDARPLKTKEIARFGEGTPLPWLDRHALACVDASGDLRDVLKSTALAITLFCACTGPAMAYAPDETPIVIGRSTLLESKVLGQLRRINVHTPADYATSGKTYPVLFLLDGGEREDFPHIAGLAQLGELSWTYREMIVVGIEGIDRRHDLTHPSTVAQEQADFPTLGGSAAYRRFLSEELKPWVAARYRTNGESAIMGESLAGLFVIETLLKQPTLFDAYIAASPSLWWSDQALARGAPADIARWPALGSRKLYLTIGDEGSTMQEGVDKVMAAIGAAKPAGLTLVYDPMPHEQHSTIYHPAALKAFRTVWPGPRPD”, the protein production result was “failed”.

For the sequence “MFLRIDRLQIELPMPKEQDPNAAAAVQALLGGRFGEMSTLMNYMYQSFNFRGKKALKPYYDLIANIATEELGHIELVAATINSLLAKNPGKDLEEGVDPESAPLGFAKDVRNAAHFIAGGANSLVMGAMGEHWNGEYVFTSGNLILDLLHNFFLEVAARTHKLRVYEMTDNPVAREMIGYLLVRGGVHAAAYGKALESLTGVEMTKMLPIPKIDNSKIPEAKKYMDLGFHRNLYRFSPEDYRDLGLIWKGASPEDGTEVVVVDGPPTGGPVFDAGHDAAEFAPEFHPGELYEIAKKLYEKAK”, the protein production entry is reported as “not failed”.

For “MFLSVVTVAFRNYEGVVKTWRSLRNLARDPGLSFEWIVVDGGSEDGTREFLQKRHGEFNLRFISEKDRGIYDAMNKGIALAQGRYTLFLNSGDAFHDDAALFVRQLARQKGEAMYIGDALLDFGGGHKIRRKAKPGYYIYHSLPASHQAIFFPTAALKKYPYDLQYHVSSDYALAARLYKAGYPFRRINGLVSEFSMGGVSTSNNLELCQDAKNVQRKILRVPGFWAQLSYLLRLKTTGKTKARYNKVLEHHHHHH”, the protein production result is reported as “failed”.

Take “MFLVTGATGDIGRRVIRLLREHNHSVRGFARLTSRYGELEHRGANIFIGDLRREQDIEKACQGVQYIISAHGSDNDALTLDYRANIALIDQAKANGVQHFVFISVLGAERGYEDAPVFKAKRAVENYLAASGLNYTILRPAGLASNLLPLAERFRETGLYLLIGDPKNRTSIVSTDDLARIVVDSVTVPEARNQIFSVGGPEILLREDIPQIFSHIFKKEPIVVNSPLLVIDGLRGVLGLINPEAQQALGTFRTLLSNEFFCRKDEIAKLEQTFNFPLETLESFLRRYLAVLEHHHHHH”: the protein production result is recorded as “failed”.

On to “MFMYTEFRSQLLAGAGTSAAGQSARMAVLAGDGATGVQVSCVVPGLNEAANLRVLVPALRACLEQWCASWEIIVVDDGSTDDTAELMAQWSAVEGIRYVQLSRNFGKEAALTAGLEAADGDAVICLDADMQHPPELIGDMLAAWRNGADMVYAVRRQRDDEPWFKRVGARAFYRLLSTARGVEVPPHAGDFRLMDRRVVEALVALPERTRFMKGLYAWVGFKSQAVPYTPQARRHGASHFSAWKLFRLACDGLTAFTTWPLRLVSLIGVLFALLSLSYGGYLVADYLISGNAVSGWTTIVTALLFFAGINLISLGVVGEYVARIFDEVKGRPLFIARQRRGRAKRAAKARSQ”, for which the protein production result is given as “failed”.

Turning to “MFNKLVFKNLKLKKLSTSLVVVASLLVAQAPFANYAEAAGAEKVEKKKKRPTQLVGPRVGKKVQKAFEAYSADDIKGALVILLDIEASKPYDKAYVSRMVAVMYATLGDNDQKTIEYLKKALEPDILNEVDQSESLKLLGDMQMQTKDYKGALKSFYAWMDFSGKDDGPTYVKIANAYYSLKQLDKVIEPADKAIAAFGDKPNQNPYILKITSYYERKMYKEAVKVLETVIQVFPENKQWWTQLPMFYLLIEDYDKAVQTLDLAYKLGHLDKESQIKTLASLYSQTEAPYKAAQLLEKYIASGLVKRDDKNISTLANAWHSAQHIDKAASYYGELAKMTSDAKHYRKQGMLLKQDEQFSKAIVALNKAIELGVSNQGRIHMSIAESYFYLEKYKKAYAAIQKAMKDPSARKSAKGWKSFIVDTARRKNVTI”, the protein production result is “failed”.

Turning to “MFNLYPPHRSLEGAAILGDNCSRIFNVSDTVVNTLHIVMQSHANPLGILHGGNMIRWLVDAGTLAASKVVVGYPLLAGIDFIYLGKPVGVGETIAVFAWSPYAGRSSVEVGLAAYSLGRPGGQGLERVSAAHMTFVNVKPHEGVLRPHPHGSCIEAVDREEERLLEASMKMREARVERLRGRELLRQTVYSLRESGTEPFEVESYRIVNPIDSVAYDVMHAGAMLYIVDELGAVAALRSSAGIVVTGFVGPADFVAPMRVGEVLRMWARTSYVGRSSVEVLIRSASGFMGGGEARLTSEAYLTYISLDSSGRPLEINAPRGWEPEEQALRRAEWRRRLIRSIDSGETALEPPRRFLEMLMRGRVG”, the protein production result is “failed”.

On to “MFPQADEPERDTLPGQEEDPLPTGQEQPSITPIAGTEAQYIDIAEWYDSDSILYITDEGENSLVYIYNLLTGEKKSLFSSDDAVIKVTANSTHSQFAIQTVTQAGDAPVSIIDSQGELLMKLEDFGEDFSIFWSPYEEDKLIAVAYLPDWEQDLYLIDTSDKQVEMLDLDQSFVQWLDERTIVYLDWNGDSEGYYAPLYTFDLETEEVVLLHEEAIATLGFGDHVTLIIERPEQGAEVTTYQFWNGSEQLAEWSVPILRTYSEQWWIPFYDFDLNKRLFYAYKPNRTGDYFEYDGGFSFIAFDVDHGEETVLFESDEHVPFRLSPTGQRALFGPRLETVMDLPTGESNSLIELEHHHHHH”, for which the protein production result is reported as “failed”.

For the sequence “MFPYFESVATASTEFHAIEPDPHMRRQAAEQANTQATPIHIESSPAEALPYYEDTFDVVITSMVFCTIPDIESAMSEITRVLKPGGELRFFEHVIDDGWRARLQSALAPLWKRLAGGCHLTRQTGTRLVADQSFDVVEIERLNLGITPIRPFVRGRLRKRSVSSTRLEHHHHHH”, the protein production result is “failed”.

Turning to “MFQDNPLLAQLKQQIQEKLPKKEGTIKATERGFGFLESDDKKKSIFIPPAQMKKVMHGDKVVALIRTENEKEQAEPDQLIEQSITRFIGRIQMFKKRLQVMPDHPSLKNAIKAKTRKGVNPETLKEGDWVVAELTQHPLKGDQGFQCDITHKITDSDDKIAPWWVTLAQNDLPNSEPEGIEHWEIKDDADLVRVDMTATPFVTIDGESTKDMDDALYIKKLENGSFELTIAIADPTAYITPDDSMDKVARERGYTIYLPGRNIPMLPRDLSDELCSLIEGQERPALCCTVLVDANGNIQEDSINFFAATIKSHARLAYDHVSDFLETGSCDKWQPNDTIAQVVTELYEFAQVRTTWRETHAVIFPDRPDYRFELSEDNDVIAIHADMRRTANKLVEEAMVTANICAGKTLRAAFNMGVFNSHAGIKSDKLKDVVEIVNQLEGVDFTEEQIATLEGFSELRRLLGKQPTSYLDARIRKFQTYSETGNEPLPHYAMGLDIYATWTSPIRKYSDMINHRMLKAHILGKEPVQRPDDIVGEELAISRRFHRMAERNVSDWLYCRTLASEVEKETKYTAEIFDINRAGMRVRLIENGAAAFIPGSLIVDNKERIECNADQGIISIDKHETFKLGDQLHVVLAEVKEDTRNMVAKPLQAFPAPEPEEAPVVENEDATTNATTSADA”, the protein production entry is recorded as “failed”.

Regarding “MFQDVLVITVAVGRGGDGAVSFRREKFVPKGGPDGGDGGRGGSVYLRARGSVDSLSRLSKRTYKAEDGEHGRGSQQHGRGGEDLVIEVPRGTRVFDADTGELLADLTEEGQTVLVARGGAGGRGNMHFVSPTRQAPRFAEAGEEGEKRRLRLELMLIADVGLVGYPNAGKSSLLAAMTRAHPKIAPYPFTTLSPNLGVVEVSEEERFTLADIPGIIEGASEGKGLGLEFLRHIAGTRVLLYVLDAADDPFKTLKTLRKKVWAYDPGLLGRPSLVALNKVDLLEKEAVKALADALAREGLAVLPVSALTGAGLPALKEALHALVRSTPPPEMPKPVPRKEVQAGVEVVPVAEGVYEVRAPEVERYLARIKGDLMEAAGYLQEVFRRQGVEAALRAKGVRAGDLVRIGGLEFEYIPEV”, the protein production result is recorded as “not failed”.

In the case of “MFQPVTQKRLTNVSVVRMRKGGKRFEIACYPNMVMAYREGHVRDLDEVIQVEDVFENVSKGKLAANADLERCFGTRDRHAVLLQILLHGDLQVSDRERQYQSTRKLHEIASVVAAKTISRETKKPLPVGLIEKALREIHFAVQPNRPAKAQALEVIPLLRAQSGLDLERARLRLRIHVPSQRDAKAVKARLEPLQQGETDGTHSSSRSDSVRMKDGSAAVESESEEWLPGGALLWTVQADPGAFREIEEIVQRETNQQGIVEVASLRVLDDEDESILS”, the protein production result is given as “failed”.

Consider “MFRFADPNFLYLLILLPFLVALYLYSNYHRRQNIRKYGDPALLKGLMPTISKYRPDIKFWLTFAALTLVILMLARPQFGSKMETVKRSGVEAVIALDISNSMLAEDVTPSRLDKSKKLISRLVDTFNNDKVGLIVFAGDAFTQLPITSDYVSAKMFLETINPSLITTQGTDIGAAIRLAMKSFTPQEGVGRAIIVITDGENHEGGAVEAAQEAAEKGMQVFVLGVGSPDGSPIPAEDGSNNFRRDKDGNVIVTRLNEQMCQEIAKAGNGMYIRVDNTNSAEKVLNNEIAKLSKADVESQVYTEFDEQFQALAWLVLILLVVEMLILERKNPLFKNVRLFK”, for which the protein production result is on record as “failed”.
